For 95 sequences, fraction ligated results are on record in the supplement of paper PMC6755084.

In this series the test system is F1*sub RNA substrate (template-directed ligation). Description: fraction ligated after 30 min (ligated reads / total reads); higher = more ligase activity; sequences stand for … in GAGACCGCAACTGAAAAGTTGT…AGTTCTGCACGTAGAAGCAAAAGGC
The following applies: 42 °C. The procedure:
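Chip-synthesised pool of F1* ligase ribozyme variants (all single and double substitutions, single, double and triple deletions in the catalytic core and GAA bulge, plus designed variants) was transcribed with T7 and reacted as a pool with excess substrate F1*sub for 30 min at 42 C in 50 mM EPPS pH 8.5, 25 mM MgCl2. Ligated and unligated bands were separated by PAGE, barcoded by RT and deep sequenced; fraction ligated = ligated reads / total reads per variant, relative activity = FL / FL of wild type (0.826). Sequences are the DNA template of the ribozyme.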
Sequence ATCACTTGTCGAGACACTTTGGATGGGTTGA [3d185] gave a fraction ligated of 0.757.

ATCACTTGTCGTAAAACTTTGGATGGGTTGA [3d211] registered a fraction ligated of 0.768.

In turn, ATCACTTGTCGTAAACACTTGGATGGGTTGA [3d214] gave a fraction ligated of 0.742. As for ATCACTTGTCGTAAACACTTTGATGGGTTGA [3d215], the figure is 0.521; as for ATCACTTGTCGTAAACACTTTGGAGGGTTGA [3d217], 0.0797. As for ATCACTTGTCGTAAACACTTTGGATGGGTTA [3d219], the figure is 0.54. As for ATCACTTGTCGTAAACACTTTGGATGGGTTG [3d220], the figure is 0.75. The sequence ATCACTTGTCGTAAACACTTTGGATGGGTTGA [2d13] came in with a fraction ligated of 0.78. In turn, ATCACTTGTCGTAAACACTTTGGATGGTTGA [3d218] returned a fraction ligated of 0.557.

ATCACTTGTCGTAAACACTTTGGTGGGTTGA [3d216] registered a fraction ligated of 0.0249. As for ATCACTTGTCGTAAACATTTGGATGGGTTGA [3d213], the figure is 0.777; as for ATCACTTGTCGTAAACCTTTGGATGGGTTGA [3d212], 0.758. As for ATCACTTGTCGTAACACTTTGGATGGGTTGA [3d199], the figure is 0.779. As for ATCACTTGTCGTAAGAACTTGGATGGGTTGA [3d232], the figure is 0.751; as for ATCACTTGTCGTAAGAACTTTGATGGGTTGA [3d233], 0.533. Sequence ATCACTTGTCGTAAGAACTTTGGAGGGTTGA [3d235] registered a fraction ligated of 0.0738.

ATCACTTGTCGTAAGAACTTTGGATGGGTTA [3d237]: the fraction ligated was found to be 0.351. As for ATCACTTGTCGTAAGAACTTTGGATGGGTTG [3d238], the figure is 0.794; as for ATCACTTGTCGTAAGAACTTTGGATGGGTTGA [2d15], 0.821; as for ATCACTTGTCGTAAGAACTTTGGATGGTTGA [3d236], 0.273.

Consider ATCACTTGTCGTAAGAACTTTGGTGGGTTGA [3d234], for which the fraction ligated came to 0.0239.

Consider ATCACTTGTCGTAAGAATTTGGATGGGTTGA [3d231], for which the fraction ligated was determined as 0.757. Turning to ATCACTTGTCGTAAGACACTGGATGGGTTGA [3d253], the fraction ligated amounted to 0.701. As for ATCACTTGTCGTAAGACACTTGATGGGTTGA [3d254], the figure is 0.164. On to ATCACTTGTCGTAAGACACTTGGAGGGTTGA [3d256], for which the fraction ligated amounted to 0.0205.

On to ATCACTTGTCGTAAGACACTTGGATGGGTTA [3d258], for which the fraction ligated was 0.214. As for ATCACTTGTCGTAAGACACTTGGATGGGTTG [3d259], the figure is 0.687. The sequence ATCACTTGTCGTAAGACACTTGGATGGGTTGA [2d18] yielded a fraction ligated of 0.761. As for ATCACTTGTCGTAAGACACTTGGATGGTTGA [3d257], the figure is 0.216; as for ATCACTTGTCGTAAGACACTTGGTGGGTTGA [3d255], 0.00771.

ATCACTTGTCGTAAGACACTTTATGGGTTGA [3d260] displayed a fraction ligated of 0.0125. As for ATCACTTGTCGTAAGACACTTTGAGGGTTGA [3d262], the figure is 0.0273; as for ATCACTTGTCGTAAGACACTTTGATGGGTTA [3d264], 0.0628. As for ATCACTTGTCGTAAGACACTTTGATGGGTTG [3d265], the figure is 0.518; as for ATCACTTGTCGTAAGACACTTTGATGGGTTGA [2d19], 0.702. Sequence ATCACTTGTCGTAAGACACTTTGATGGTTGA [3d263] showed a fraction ligated of 0.0782. As for ATCACTTGTCGTAAGACACTTTGGAGGGTTA [3d271], the fraction ligated stood at 0.0188. As for ATCACTTGTCGTAAGACACTTTGGAGGGTTG [3d272], the figure is 0.094.

In turn, ATCACTTGTCGTAAGACACTTTGGAGGGTTGA [2d21] returned a fraction ligated of 0.189. Regarding ATCACTTGTCGTAAGACACTTTGGAGGTTGA [3d270], the fraction ligated was determined as 0.0103. As for ATCACTTGTCGTAAGACACTTTGGATGGGTT [3d275], the figure is 0.392; as for ATCACTTGTCGTAAGACACTTTGGATGGGTTA [2d23], 0.747.

Take ATCACTTGTCGTAAGACACTTTGGATGGGTTG [2d24]: the fraction ligated came out at 0.769. For the sequence ATCACTTGTCGTAAGACACTTTGGATGGGTTGA [1d1], the fraction ligated stood at 0.781. As for ATCACTTGTCGTAAGACACTTTGGATGGTTA [3d273], the figure is 0.68.

The sequence ATCACTTGTCGTAAGACACTTTGGATGGTTG [3d274] registered a fraction ligated of 0.691. Sequence ATCACTTGTCGTAAGACACTTTGGATGGTTGA [2d22] yielded a fraction ligated of 0.76.

For the sequence “ATCACTTGTCGTAAGACACTTTGGATGTGGTTGA [s38]”, the fraction ligated amounted to 0.693. The sequence ATCACTTGTCGTAAGACACTTTGGGGGTTGA [3d266] registered a fraction ligated of 0.0143. As for ATCACTTGTCGTAAGACACTTTGGTGGGTTA [3d268], the figure is 0.00829; as for ATCACTTGTCGTAAGACACTTTGGTGGGTTG [3d269], 0.0136. With ATCACTTGTCGTAAGACACTTTGGTGGGTTGA [2d20], the fraction ligated stood at 0.0391. For the sequence ATCACTTGTCGTAAGACACTTTGGTGGTTGA [3d267], the fraction ligated turned out to be 0.0134. As for ATCACTTGTCGTAAGACACTTTGTGGGTTGA [3d261], the figure is 0.0128. As for ATCACTTGTCGTAAGACATTGGATGGGTTGA [3d246], the figure is 0.739; as for ATCACTTGTCGTAAGACATTTGATGGGTTGA [3d247], 0.0818; as for ATCACTTGTCGTAAGACATTTGGAGGGTTGA [3d249], 0.0168. With ATCACTTGTCGTAAGACATTTGGATGGGTTA [3d251], the fraction ligated was determined as 0.66. Sequence ATCACTTGTCGTAAGACATTTGGATGGGTTG [3d252] showed a fraction ligated of 0.739. With ATCACTTGTCGTAAGACATTTGGATGGGTTGA [2d17], the fraction ligated is 0.78. As for ATCACTTGTCGTAAGACATTTGGATGGTTGA [3d250], the figure is 0.445. As for ATCACTTGTCGTAAGACATTTGGTGGGTTGA [3d248], the figure is 0.00393. ATCACTTGTCGTAAGACCTTGGATGGGTTGA [3d239] came in with a fraction ligated of 0.716.

ATCACTTGTCGTAAGACCTTTGATGGGTTGA [3d240] came in with a fraction ligated of 0.311. As to ATCACTTGTCGTAAGACCTTTGGAGGGTTGA [3d242], the fraction ligated amounted to 0.04.

Sequence ATCACTTGTCGTAAGACCTTTGGATGGGTTA [3d244] registered a fraction ligated of 0.645. As for ATCACTTGTCGTAAGACCTTTGGATGGGTTG [3d245], the figure is 0.706; as for ATCACTTGTCGTAAGACCTTTGGATGGGTTGA [2d16], 0.741. As for ATCACTTGTCGTAAGACCTTTGGATGGTTGA [3d243], the figure is 0.712. As for ATCACTTGTCGTAAGACCTTTGGTGGGTTGA [3d241], the figure is 0.0169. In turn, ATCACTTGTCGTAAGACTTTGGATGGGTTGA [3d221] registered a fraction ligated of 0.727. ATCACTTGTCGTAAGCACTTGGATGGGTTGA [3d224] had a fraction ligated of 0.716.

In turn, ATCACTTGTCGTAAGCACTTTGATGGGTTGA [3d225] gave a fraction ligated of 0.393. As for ATCACTTGTCGTAAGCACTTTGGAGGGTTGA [3d227], the figure is 0.0599; as for ATCACTTGTCGTAAGCACTTTGGATGGGTTA [3d229], 0.34; as for ATCACTTGTCGTAAGCACTTTGGATGGGTTG [3d230], 0.731.

ATCACTTGTCGTAAGCACTTTGGATGGGTTGA [2d14] registered a fraction ligated of 0.782.

Regarding ATCACTTGTCGTAAGCACTTTGGATGGTTGA [3d228], the fraction ligated came to 0.195.

As for ATCACTTGTCGTAAGCACTTTGGTGGGTTGA [3d226], the fraction ligated amounted to 0.0296. ATCACTTGTCGTAAGCATTTGGATGGGTTGA [3d223] registered a fraction ligated of 0.731. As for ATCACTTGTCGTAAGCCTTTGGATGGGTTGA [3d222], the figure is 0.744; as for ATCACTTGTCGTAGAACTTTGGATGGGTTGA [3d201], 0.867.

In turn, ATCACTTGTCGTAGACACTTGGATGGGTTGA [3d204] displayed a fraction ligated of 0.74.

Take ATCACTTGTCGTAGACACTTTGATGGGTTGA [3d205]: the fraction ligated turned out to be 0.715. ATCACTTGTCGTAGACACTTTGGAGGGTTGA [3d207] showed a fraction ligated of 0.211. As for ATCACTTGTCGTAGACACTTTGGATGGGTTA [3d209], the figure is 0.728; as for ATCACTTGTCGTAGACACTTTGGATGGGTTG [3d210], 0.782.

ATCACTTGTCGTAGACACTTTGGATGGGTTGA [2d12] showed a fraction ligated of 0.789. As for ATCACTTGTCGTAGACACTTTGGATGGTTGA [3d208], the figure is 0.766; as for ATCACTTGTCGTAGACACTTTGGTGGGTTGA [3d206], 0.0928.

The sequence ATCACTTGTCGTAGACATTTGGATGGGTTGA [3d203] gave a fraction ligated of 0.731. Consider ATCACTTGTCGTAGACCTTTGGATGGGTTGA [3d202], for which the fraction ligated is 0.767.

In turn, ATCACTTGTCGTAGCACTTTGGATGGGTTGA [3d200] gave a fraction ligated of 0.749.

As for ATCACTTGTCGTGACACTTTGGATGGGTTGA [3d198], the fraction ligated was 0.746.

Sequence ATCACTTGTCTAAACACTTTGGATGGGTTGA [3d173] had a fraction ligated of 0.77.
